Source: article PMC4697752

B1: Matrix metalloproteinase-9 (MMP-9): mS38 (protein)
parent chain: MSLWQPLVLVLLVLGCCFAAPRQRQSTLVLFPGDLRTNLTDRQLAEEYLYRYGYTRVAEMRGESKSLGPALLLLQKQLSLPETGELDSATLKAMRTPRCGVPDLGRFQTFEGDLKWHHHNITYWIQNYSEDLPRAVIDDAFARAFALWSAVTPLTFTRVYSRDADIVIQFGVAEHGDGYPFDGKDGLLAHAFPPGPGIQGDAHFDDDELWSLGKGVVVPTRFGNADGAACHFPFIFEGRSYSACTTDGRSDGLPWCSTTANYDTDDRFGFCPSERLYTQDGNADGKPCQFPFIFQGQSYSACTTDGRSDGYRWCATTANYDRDKLFGFCPTRADSTVMGGNSAGELCVFPFTFLGKEYSTCTSEGRGDGRLWCATTSNFDSDKKWGFCPDQGYSLFLVAAHEFGHALGLDHSSVPEALMYPMYRFTEGPPLHKDDVNGIRHLYGPRPEPEPRPPTTTTPQPTAPPTVCPTGPPTVHPSERPTAGPTGPPSAGPTGPPTAGPSTATTVPLSPVDDACNVNIFDAIAEIGNQLYLFKDGKYWRFSEGRGSRPQGPFLIADKWPALPRKLDSVFEERLSKKLFFFSGRQVWVYTGASVLGPRRLDKLGLGADVAQVTGALRSGRGKMLLFSGRRLWRFDVKAQMVDPRSASEVDRMFPGVPLDTHDVFQYREKAYFCQDRFYWRVSSRSELNQVDQVGYVTYDILQCPED
B2: Matrix metalloproteinase-9 (MMP-9): N120S (protein)
parent chain: B1 parent chain
B3: Matrix metalloproteinase-9 (MMP-9): mS38/N120S (protein)
parent chain: B1 parent chain

Assay: secreted mCherry-tagged MMP-9, microplate reader
Conditions: glycan lost; control: wild type

Row | Protein | expression_or_secretion
1 | B1 | no change
2 | B2 | decreases
3 | B3 | decreases
